Results published in patent US20260184814A1, “BROADLY NE[…] INFLUENZA NEURAMINIDASE” (priority 2022, published 2026).

Tests used:
[1] = biological target: human FcγRIIIa (F158 allele) (human) (UniProt P08637); test: MSD [cont'd]
[2] = biological target: human FcγRIIIa (V158 allele) (human) (UniProt P08637); test: MSD [cont'd]
[3] = biological target: human FcγRIIIb (human) (UniProt O75015); test: MSD [cont'd]
[4] = biological target: human FcγRIIa (H131 allele) (human) (UniProt P12318); test: MSD [cont'd]
[5] = biological target: human FcγRIIa (R131 allele) (human) (UniProt P12318); test: MSD [cont'd]
[6] = biological target: human FcγRIIb (human) (UniProt P31994); test: MSD [cont'd]
[7] = biological target: human FcγRIIa (H131 allele) (human) (UniProt P12318); test: MSD
[8] = biological target: human FcγRIIa (R131 allele) (human) (UniProt P12318); test: MSD
[9] = biological target: human FcγRIIb (human) (UniProt P31994); test: MSD
[10] = biological target: human C1q (human) (UniProt P02745); test: MSD [cont'd]
[11] = biological target: human FcRn (human) (UniProt P55899); test: MSD, pH 6 [cont'd]
[12] = biological target: human FcγRIIb (human) (UniProt P31994); test: MSD electrochemiluminescence binding assay; column IIB
[13] = biological target: human FcRn (human) (UniProt P55899); test: MSD electrochemiluminescence binding assay; column FcRn
[14] = biological target: human FcγRIIIb (human) (UniProt O75015); test: MSD electrochemiluminescence binding assay; column IIIB
[15] = biological target: human FcγRIIa (H131 allele) (human) (UniProt P12318); test: MSD electrochemiluminescence binding assay; column IIA_H
[16] = biological target: human FcγRIIa (R131 allele) (human) (UniProt P12318); test: MSD electrochemiluminescence binding assay; column IIA_R
[17] = biological target: human FcγRIIIa (F158 allele) (human) (UniProt P08637); test: MSD electrochemiluminescence binding assay; column IIIA_F
[18] = biological target: human FcγRIIIa (V158 allele) (human) (UniProt P08637); test: MSD electrochemiluminescence binding assay; column IIIA_V
[19] = biological target: human FcγRIIIa (F158 allele) (human) (UniProt P08637)
[20] = biological target: human FcγRIIIa (V158 allele) (human) (UniProt P08637)
[21] = biological target: human FcRn (human) (UniProt P55899); test: MSD [cont'd]
[22] = biological target: human FcγRIIIa (F158 allele) (human) (UniProt P08637); test: MSD
[23] = biological target: human FcγRIIIa (V158 allele) (human) (UniProt P08637); test: MSD
[24] = biological target: human FcγRIIIb (human) (UniProt O75015); test: MSD

human C1q (human), sequence (P02745 23-245 limits assumed, chain 1 of 3): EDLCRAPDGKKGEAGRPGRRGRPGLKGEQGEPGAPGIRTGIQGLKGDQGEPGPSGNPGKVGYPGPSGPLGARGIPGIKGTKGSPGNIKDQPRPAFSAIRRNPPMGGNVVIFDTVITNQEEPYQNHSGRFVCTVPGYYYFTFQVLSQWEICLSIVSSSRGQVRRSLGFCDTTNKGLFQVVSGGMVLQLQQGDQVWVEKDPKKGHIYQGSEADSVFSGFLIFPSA
human C1q (human), sequence (P02746 28-253 limits assumed, chain 2 of 3, further chain): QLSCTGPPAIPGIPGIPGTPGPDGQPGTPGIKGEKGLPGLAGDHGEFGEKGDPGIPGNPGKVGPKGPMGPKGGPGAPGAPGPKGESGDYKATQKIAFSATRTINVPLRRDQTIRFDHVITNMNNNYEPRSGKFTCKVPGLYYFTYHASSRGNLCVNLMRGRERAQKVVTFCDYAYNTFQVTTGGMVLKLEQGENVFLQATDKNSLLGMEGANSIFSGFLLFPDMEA
human C1q (human), sequence (P02747 29-245 limits assumed, chain 3 of 3, further chain): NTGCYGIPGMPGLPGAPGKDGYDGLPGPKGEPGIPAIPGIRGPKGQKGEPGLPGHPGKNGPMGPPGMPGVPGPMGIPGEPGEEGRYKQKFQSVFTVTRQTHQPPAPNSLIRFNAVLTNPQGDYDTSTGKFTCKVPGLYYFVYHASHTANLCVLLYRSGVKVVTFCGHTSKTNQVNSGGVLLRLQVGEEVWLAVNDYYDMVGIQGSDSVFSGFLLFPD
human FcγRIIb (human), sequence (P31994 43-217 limits assumed): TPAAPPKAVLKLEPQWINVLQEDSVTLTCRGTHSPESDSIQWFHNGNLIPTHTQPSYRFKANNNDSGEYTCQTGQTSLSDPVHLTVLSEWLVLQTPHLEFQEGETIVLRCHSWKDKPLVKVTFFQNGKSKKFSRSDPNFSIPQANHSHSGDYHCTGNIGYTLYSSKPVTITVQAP
human FcRn (human), sequence (P55899 24-297 limits assumed, chain 1 of 2): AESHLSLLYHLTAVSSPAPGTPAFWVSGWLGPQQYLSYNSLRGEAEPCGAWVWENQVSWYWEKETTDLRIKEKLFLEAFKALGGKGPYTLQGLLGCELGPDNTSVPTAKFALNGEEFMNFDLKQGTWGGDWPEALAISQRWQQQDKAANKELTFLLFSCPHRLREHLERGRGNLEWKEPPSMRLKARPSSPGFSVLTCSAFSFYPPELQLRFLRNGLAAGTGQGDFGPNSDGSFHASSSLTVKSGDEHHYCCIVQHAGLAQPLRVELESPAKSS
human FcRn (human), sequence (chain, as listed by the source limits assumed, chain 2 of 2): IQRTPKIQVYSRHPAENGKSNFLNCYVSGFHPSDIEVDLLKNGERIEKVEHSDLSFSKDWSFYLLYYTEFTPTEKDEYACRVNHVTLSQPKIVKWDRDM
human FcγRIIIa (F158 allele) (human), sequence (P08637 17-208 limits assumed): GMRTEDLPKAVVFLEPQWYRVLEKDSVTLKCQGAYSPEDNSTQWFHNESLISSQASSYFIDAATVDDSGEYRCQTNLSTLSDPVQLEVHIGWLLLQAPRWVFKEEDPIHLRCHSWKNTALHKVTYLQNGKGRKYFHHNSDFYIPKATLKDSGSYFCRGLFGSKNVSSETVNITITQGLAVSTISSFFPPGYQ
human FcγRIIa (H131 allele) (human), sequence (P12318 34-218 limits assumed): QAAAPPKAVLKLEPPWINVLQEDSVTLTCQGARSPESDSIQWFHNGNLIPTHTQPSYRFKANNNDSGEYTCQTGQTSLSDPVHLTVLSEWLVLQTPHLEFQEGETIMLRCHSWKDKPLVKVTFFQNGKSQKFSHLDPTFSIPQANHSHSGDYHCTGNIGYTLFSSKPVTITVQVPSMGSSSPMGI
human FcγRIIIb (human), sequence (O75015 17-200 limits assumed): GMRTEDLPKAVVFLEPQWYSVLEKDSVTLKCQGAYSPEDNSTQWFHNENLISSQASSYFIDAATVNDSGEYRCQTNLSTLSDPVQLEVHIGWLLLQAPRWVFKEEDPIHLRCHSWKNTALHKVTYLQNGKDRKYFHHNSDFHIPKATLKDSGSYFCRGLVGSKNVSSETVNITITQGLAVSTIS
human FcγRIIIa (V158 allele) (human), sequence (P08637 17-208 F176V limits assumed): as the sequence (P08637 17-208 limits assumed) above, with F160V counted along it
human FcγRIIa (R131 allele) (human), sequence (P12318 34-218 H167R limits assumed): as the sequence (P12318 34-218 limits assumed) above, with H134R counted along it

A330L_I332E-afuc (antibody)
fold to wt-fucose [1]: 191 fold
fold to wt-fucose [2]: 37.8 fold
fold to wt-fucose [3]: 37.4 fold
fold to wt-fucose [4]: 0.42 fold
fold to wt-fucose [5]: 0.53 fold
fold to wt-fucose [6]: 0.61 fold

A431G (antibody)
fold-change to WT Fc [7]: 1.76 fold
fold-change to WT Fc [8]: 1.38 fold
fold-change to WT Fc [9]: 1.5 fold
fold-change to WT Fc [10]: 0.824 fold
fold-change to WT Fc [1]: 1.23 fold
fold-change to WT Fc [2]: 1.61 fold
fold-change to WT Fc [11]: 0.916 fold

C220P (antibody)
fold-change to WT Fc [7]: 1.17 fold
fold-change to WT Fc [8]: 1.04 fold
fold-change to WT Fc [9]: 1.21 fold
fold-change to WT Fc [10]: 0.761 fold
fold-change to WT Fc [1]: 0.99 fold
fold-change to WT Fc [2]: 1.33 fold
fold-change to WT Fc [11]: 0.991 fold

G236A_A330L_I332E (antibody)
fold-change to WT Fc [7]: 3.6 fold
fold-change to WT Fc [9]: 0.605 fold
fold-change to WT Fc [10]: -0.004 fold
fold-change to WT Fc [11]: 0.937 fold

G236A_E272Y_S298N (antibody)
fold-change in binding vs wild-type IgG1 [12]: 0.19
fold-change in binding vs wild-type IgG1 [13]: 0.98
fold-change in binding vs wild-type IgG1 [14]: 0.62
fold-change in binding vs wild-type IgG1 [15]: 0.63
fold-change in binding vs wild-type IgG1 [16]: 0.38
fold-change in binding vs wild-type IgG1 [17]: 0.31
fold-change in binding vs wild-type IgG1 [18]: 0.06

G236A_K334A_Q295E-afuc (antibody)
FcγR reporter signaling, fold to wt-fucose [cont'd] [19]: 12.7 fold
FcγR reporter signaling, fold to wt-fucose [cont'd] [20]: 5.54 fold
fold to wt-fucose [21]: 1.11 fold
fold to wt-fucose [1]: 27.5 fold
fold to wt-fucose [2]: 7.93 fold
fold to wt-fucose [3]: 1.62 fold
fold to wt-fucose [4]: 5.32 fold
fold to wt-fucose [5]: 3.75 fold
fold to wt-fucose [6]: 0.55 fold

G236A_L328V_Q295E-afuc (antibody)
fold-change (reference not given) [22]: 11.8 fold
fold-change (reference not given) [23]: 7.4 fold
fold-change (reference not given) [24]: 2.4 fold
fold-change (reference not given) [7]: 6.7 fold
fold-change (reference not given) [8]: 9.6 fold

G236A_P230A_Q295E-afuc (antibody)
FcγR reporter signaling, fold to wt-fucose [cont'd] [19]: 10.9 fold
FcγR reporter signaling, fold to wt-fucose [cont'd] [20]: 5.54 fold
fold to wt-fucose [21]: 1.02 fold
fold to wt-fucose [1]: 26.7 fold
fold to wt-fucose [2]: 10.8 fold
fold to wt-fucose [3]: 1.8 fold
fold to wt-fucose [4]: 8.94 fold
fold to wt-fucose [5]: 6.04 fold
fold to wt-fucose [6]: 0.67 fold

G236A_Q295E_S298N (antibody)
fold-change in binding vs wild-type IgG1 [12]: 0.23
fold-change in binding vs wild-type IgG1 [13]: 0.93
fold-change in binding vs wild-type IgG1 [14]: 0.76
fold-change in binding vs wild-type IgG1 [15]: 1.82
fold-change in binding vs wild-type IgG1 [16]: 0.65
fold-change in binding vs wild-type IgG1 [17]: 0.35
fold-change in binding vs wild-type IgG1 [18]: 0.07

G236A_R292P-afuc (antibody)
FcγR reporter signaling, fold to wt-fucose [cont'd] [19]: 3.34 fold
FcγR reporter signaling, fold to wt-fucose [cont'd] [20]: 2.18 fold
fold to wt-fucose [21]: 0.73 fold
fold to wt-fucose [1]: 5.83 fold
fold to wt-fucose [2]: 3.37 fold
fold to wt-fucose [3]: 1.15 fold
fold to wt-fucose [4]: 3.05 fold
fold to wt-fucose [5]: 1.04 fold
fold to wt-fucose [6]: 0.51 fold

G236A_R292P_A431G (antibody)
fold-change to WT Fc [7]: 5.21 fold
fold-change to WT Fc [8]: 0.939 fold
fold-change to WT Fc [9]: 0.511 fold
fold-change to WT Fc [10]: 0.1 fold
fold-change to WT Fc [1]: 0.569 fold
fold-change to WT Fc [2]: 0.394 fold
fold-change to WT Fc [11]: 0.674 fold

G236A_R292P_G446E (antibody)
fold-change to WT Fc [7]: 4.54 fold
fold-change to WT Fc [8]: 0.986 fold
fold-change to WT Fc [9]: 0.512 fold
fold-change to WT Fc [10]: 0.099 fold
fold-change to WT Fc [1]: 0.552 fold
fold-change to WT Fc [2]: 0.415 fold
fold-change to WT Fc [11]: 0.851 fold

G236A_R292P_Y300L-afuc (antibody)
fold-change (reference not given) [22]: 19.7 fold
fold-change (reference not given) [23]: 9.1 fold
fold-change (reference not given) [24]: 1.8 fold
fold-change (reference not given) [7]: 11.2 fold
fold-change (reference not given) [8]: 2.2 fold

G236A_Y300L-afuc (antibody)
FcγR reporter signaling, fold to wt-fucose [cont'd] [20]: 3.49 fold
fold-change (reference not given) [22]: 30.1 fold
fold-change (reference not given) [23]: 13.7 fold
fold-change (reference not given) [24]: 2.6 fold
fold-change (reference not given) [7]: 14.9 fold
fold-change (reference not given) [8]: 4 fold
fold-change (reference not given) [9]: 0.9 fold
fold to wt-fucose [21]: 0.92 fold
fold to wt-fucose [1]: 30.1 fold
fold to wt-fucose [2]: 13.7 fold
fold to wt-fucose [3]: 2.55 fold
fold to wt-fucose [4]: 14.9 fold
fold to wt-fucose [5]: 3.95 fold
fold to wt-fucose [6]: 0.93 fold

G236L (antibody)
fold-change to WT Fc [7]: 0.435 fold
fold-change to WT Fc [8]: 1.42 fold
fold-change to WT Fc [9]: 0.395 fold
fold-change to WT Fc [10]: 1.48 fold
fold-change to WT Fc [1]: 0.345 fold
fold-change to WT Fc [2]: 0.083 fold
fold-change to WT Fc [11]: 0.949 fold

G236S-afuc (antibody)
FcγR reporter signaling, fold to wt-fucose [cont'd] [20]: 2.86 fold
fold to wt-fucose [21]: 0.85 fold
fold to wt-fucose [1]: 10.6 fold
fold to wt-fucose [2]: 4.63 fold
fold to wt-fucose [3]: 1.37 fold
fold to wt-fucose [4]: 7.37 fold
fold to wt-fucose [5]: 4.39 fold
fold to wt-fucose [6]: 1.08 fold

G236S_G420V_G446E_L309T-afuc (antibody)
FcγR reporter signaling, fold to wt-fucose [cont'd] [19]: 4.41 fold
FcγR reporter signaling, fold to wt-fucose [cont'd] [20]: 4 fold
fold to wt-fucose [21]: 0.77 fold
fold to wt-fucose [1]: 3.35 fold
fold to wt-fucose [2]: 1.99 fold
fold to wt-fucose [3]: 0.86 fold
fold to wt-fucose [4]: 3.62 fold
fold to wt-fucose [5]: 1.7 fold
fold to wt-fucose [6]: 0.44 fold

G236S_R292P_Y300L-afuc (antibody)
FcγR reporter signaling, fold to wt-fucose [cont'd] [19]: 6.54 fold
FcγR reporter signaling, fold to wt-fucose [cont'd] [20]: 2.87 fold
fold to wt-fucose [21]: 0.8 fold
fold to wt-fucose [1]: 5.47 fold
fold to wt-fucose [2]: 3.17 fold
fold to wt-fucose [3]: 1.04 fold
fold to wt-fucose [4]: 8.13 fold
fold to wt-fucose [5]: 1.5 fold
fold to wt-fucose [6]: 0.72 fold

G446E (antibody)
fold-change to WT Fc [7]: 1.11 fold
fold-change to WT Fc [8]: 1.05 fold
fold-change to WT Fc [9]: 1.17 fold
fold-change to WT Fc [10]: 0.84 fold
fold-change to WT Fc [1]: 1.1 fold
fold-change to WT Fc [2]: 1.42 fold
fold-change to WT Fc [11]: 1.06 fold

K334A_Q295E_S298N (antibody)
fold-change in binding vs wild-type IgG1 [12]: 0.47
fold-change in binding vs wild-type IgG1 [13]: 0.91
fold-change in binding vs wild-type IgG1 [14]: 0.93
fold-change in binding vs wild-type IgG1 [15]: 0.22
fold-change in binding vs wild-type IgG1 [16]: 0.28
fold-change in binding vs wild-type IgG1 [17]: 0.37
fold-change in binding vs wild-type IgG1 [18]: 0.09

L234D_G236D_K326E (antibody)
fold-change in binding vs wild-type IgG1 [12]: 0.28
fold-change in binding vs wild-type IgG1 [13]: 0.83
fold-change in binding vs wild-type IgG1 [14]: 0.6
fold-change in binding vs wild-type IgG1 [15]: 0.14
fold-change in binding vs wild-type IgG1 [16]: 0.3
fold-change in binding vs wild-type IgG1 [17]: 0.35
fold-change in binding vs wild-type IgG1 [18]: 0.05

L234D_V264R_K326E (antibody)
fold-change in binding vs wild-type IgG1 [12]: 0.5
fold-change in binding vs wild-type IgG1 [13]: 0.83
fold-change in binding vs wild-type IgG1 [14]: 0.6
fold-change in binding vs wild-type IgG1 [15]: 0.14
fold-change in binding vs wild-type IgG1 [16]: 0.25
fold-change in binding vs wild-type IgG1 [17]: 0.27
fold-change in binding vs wild-type IgG1 [18]: 0.05

L328V_Q295E_S298N (antibody)
fold-change in binding vs wild-type IgG1 [12]: 0.32
fold-change in binding vs wild-type IgG1 [13]: 1.02
fold-change in binding vs wild-type IgG1 [14]: 0.79
fold-change in binding vs wild-type IgG1 [15]: 0.26
fold-change in binding vs wild-type IgG1 [16]: 0.33
fold-change in binding vs wild-type IgG1 [17]: 0.28
fold-change in binding vs wild-type IgG1 [18]: 0.08

P245A_Q295E_S298N (antibody)
fold-change in binding vs wild-type IgG1 [12]: 0.31
fold-change in binding vs wild-type IgG1 [13]: 0.85
fold-change in binding vs wild-type IgG1 [14]: 0.89
fold-change in binding vs wild-type IgG1 [15]: 0.28
fold-change in binding vs wild-type IgG1 [16]: 0.3
fold-change in binding vs wild-type IgG1 [17]: 0.34
fold-change in binding vs wild-type IgG1 [18]: 0.1

R292P (antibody)
fold-change to WT Fc [7]: 0.577 fold
fold-change to WT Fc [8]: 0.454 fold
fold-change to WT Fc [9]: 0.541 fold
fold-change to WT Fc [10]: 0.549 fold
fold-change to WT Fc [1]: 0.79 fold
fold-change to WT Fc [2]: 0.917 fold
fold-change vs wt [4]: 0.58 fold
fold-change vs wt [5]: 0.45 fold
fold-change vs wt [6]: 0.54 fold
fold-change to WT Fc [11]: 0.898 fold

R292P_G446E (antibody)
fold-change to WT Fc [7]: 0.628 fold
fold-change to WT Fc [8]: 0.45 fold
fold-change to WT Fc [9]: 0.562 fold
fold-change to WT Fc [10]: 0.391 fold
fold-change to WT Fc [1]: 0.779 fold
fold-change to WT Fc [2]: 0.916 fold
fold-change to WT Fc [11]: 0.884 fold
